Where a SMILES comes first, the peptide text is derived from it. Where no end group is shown, it is not given here. [ ]: non-standard residue; d: D form. pY = N[C@@H](Cc1ccc(OP(=O)(O)O)cc1)C(=O)O
Columns and labels:
[1] = test system: murine splenocytes; experiment: Stability of intracellular STAT-6-IP in splenocytes (western blot, anti-phosphoSTAT-6 antibody); format: cell-based; conditions: for Percent Maximum (±STD), intracellular STAT-6-IP: normalized to 100%
Experimental: (§1) To determine the half-life of the intracellular PTD4 peptide in the absence of further uptake, splenocytes were incubated with the FITC-PTD4 peptide for 4 hours, washed and trypsinized, and placed back into complete medium after which intracellular localization of the peptide was monitored over time by flow cytometry. […] To monitor stability of the murine-specific PTD4-STAT-6 peptide (STAT-6-IP; Tyr-Ala-Arg-Ala-Ala-Ala-Arg-Gln-Ala-Arg-Ala-Gly-Arg-Gly-Tyr*-Val-Ser-Thr-Thr; SEQ ID NO:7) in murine splenocytes, cells were incubated with the STAT-6-IP for four hours, after which they were washed and trypsinized. The presence of intracellular STAT-6-IP was monitored by western blot analysis of cell lysates harvested at different time points and resolved by SDS-PAGE. The STAT-6-IP was visualized using anti-phosphoSTAT-6 antibody and data normalized to 100% (Table 2).
(§2) To monitor stability of the STAT-6-IP in murine splenocytes, cells in DMEM/10% FBS were incubated with the STAT-6-IP (100 μM) for four hours, after which they were washed twice with PBS and trypsinized. Splenocytes were then incubated with soybean trypsin inhibitor (0.5 mg/mL in 10 mM sodium tetraborate) for 5 minutes. The cells were washed again once in PBS and subsequently placed back into complete medium. At different time points, cells were harvested and lysed in tricine sample buffer (100 mM Tris-HCl, pH 6.8, 24% glycerol, 8% SDS, 200 mM DTT). Lysates were clarified and equal concentrations (20 μg/lane) resolved by SDS-PAGE on 18% tris-tricine gels, after which proteins were transferred to PVDF membrane. For western immunoblot analysis, membranes were blocked for one hour in TBST (10 mM Tris-Cl pH 7.4, 2.5 mM EDTA, 150 mM NaCl, 0.1% TWEEN™-20) containing 0.25% gelatin (bloom 275) at room temperature. Blots were incubated with anti-phosphoSTAT-6 antibodies overnight at 4° C. followed by horseradish peroxidase-conjugated bovine anti-rabbit secondary antibody for one hour. Immunoreactive bands were detected by enhanced chemiluminescence, ECLT™ (Amersham Life Sciences, San Francisco, Calif.), visualized and quantified on a FLUORCHEM™ 8000 Imaging System using ALPHAEASE™ software (Alpha Innotech, San Leandro, Calif.).

[2] = as above; format: cell-based, murine; conditions: mouse, murine splenocytes (intracellular peptide after loading); 4 hours loading at 100 μM, washed, trypsinized
Experimental: as §1, §2

[3] = test system: murine splenocytes; format: cell-based; conditions: mouse
Experimental: as §1
To monitor peptide uptake, splenocytes in Dulbecco's Modified Eagle Medium (DMEM)/10% fetal bovine serum (FBS) were incubated continuously with FITC-conjugated PTD4 peptide (100 μM) for 30 minutes to 24 hours. […] Ten thousand cells were subsequently analyzed by flow cytometry. […] Splenocytes were returned to DMEM/10% FBS and intracellular localization of peptide monitored over time by flow cytometry.

[4] = test system: murine splenocytes; experiment: Uptake of FITC-conjugated PTD4 peptide by splenocytes (flow cytometry); format: cell-based; conditions: for Percent Maximum (±SEM), peptide uptake: FITC-PTD4 100 μM, normalized to 100%
Experimental: The ability of the PTD4 protein transduction domain to enter cells was confirmed by incubating murine splenocytes with FITC-conjugated PTD4 peptide (FITC-PTD4). Splenocytes were incubated with FITC-PTD4 for various times (30 minutes to 24 hours), subsequently washed and incubated with trypsin to remove surface bound peptide, and analyzed by flow cytometry. Data was normalized to 100%. Half-maximal peptide uptake occurred at 1 hour and plateaued after 4-6 hours (Table 1).
To monitor peptide uptake, splenocytes in Dulbecco's Modified Eagle Medium (DMEM)/10% fetal bovine serum (FBS) were incubated continuously with FITC-conjugated PTD4 peptide (100 μM) for 30 minutes to 24 hours. At each time point, surface bound peptide was removed by washing cells twice with phosphate-buffered saline (PBS) and then incubating cells with trypsin for five minutes. Ten thousand cells were subsequently analyzed by flow cytometry. To monitor the half-life of intracellular peptide (in the absence of uptake), splenocytes in DMEM/10% FBS were incubated with FITC-conjugated PTD4 peptide (100 μM) for four hours, after which they were washed twice with PBS and incubated with trypsin for five minutes. Splenocytes were returned to DMEM/10% FBS and intracellular localization of peptide monitored over time by flow cytometry.

| Percent Maximum (±STD), intracellular STAT-6-IP ([1]; 0.5 hours after 4 hours loading at 100 μM) | Percent Maximum (±STD), intracellular STAT-6-IP ([1]; 1.0 hours after 4 hours loading at 100 μM) | Percent Maximum (±STD), intracellular STAT-6-IP ([1]; 4.0 hours after 4 hours loading at 100 μM) | Time peptide remained in the cells ([1]; 4 hours loading at 100 μM, washed, trypsinized) | Percent Maximum (±STD), intracellular STAT-6-IP ([1]; 6.0 hours after 4 hours loading at 100 μM) | Percent Maximum (±STD), intracellular STAT-6-IP ([1]; 8.0 hours after 4 hours loading at 100 μM) | Percent Maximum (±STD), intracellular STAT-6-IP ([1]; 24.0 hours after 4 hours loading at 100 μM) | half-life at 100 μM [2] | Compound | Half-life of intracellular peptide [3] | Percent Maximum (±SEM), peptide uptake ([4]; 0 hours) | Percent Maximum (±SEM), peptide uptake ([4]; 0.5 hours) | Percent Maximum (±SEM), peptide uptake ([4]; 1.0 hours) | Percent Maximum (±SEM), peptide uptake ([4]; 2.0 hours) | Percent Maximum (±SEM), peptide uptake ([4]; 4.0 hours) | Percent Maximum (±SEM), peptide uptake ([4]; 6.0 hours) | Percent Maximum (±SEM), peptide uptake ([4]; 24.0 hours) | Time after which peptide uptake plateaued ([4]; continuous incubation, 100 μM) | Time of half-maximal peptide uptake ([4]; continuous incubation, 100 μM) |
| --- | --- | --- | --- | --- | --- | --- | --- | --- | --- | --- | --- | --- | --- | --- | --- | --- | --- | --- |
| 100.00 ± 0.00% | 93.69 ± 17.14% | 68.33 ± 17.42% | up to 24 hours | 66.56 ± 15.04% | 46.47 ± 15.98% | 38.50 ± 51.74% | ~8 h | CC(C)[C@H](NC(=O)[C@H](Cc1ccc(OP(=O)(O)O)cc1)NC(=O)CNC(=O)[C@H](CCCNC(=N)N)NC(=O)CNC(=O)[C@H](C)NC(=O)[C@H](CCCNC(=N)N)NC(=O)[C@H](C)NC(=O)[C@H](CCC(N)=O)NC(=O)[C@H](CCCNC(=N)N)NC(=O)[C@H](C)NC(=O)[C@H](C)NC(=O)[C@H](C)NC(=O)[C@H](CCCNC(=N)N)NC(=O)[C@H](C)NC(=O)[C@@H](N)Cc1ccc(O)cc1)C(=O)N[C@@H](CO)C(=O)N[C@H](C(=O)N[C@H](C(=O)O)[C@@H](C)O)[C@@H](C)O [STAT-6-IP, Tyr-Ala-Arg-Ala-Ala-Ala-Arg-Gln-Ala-Arg-Ala-Gly-Arg-Gly-Tyr*-Val-Ser-Thr-Thr] (H-YARAAARQARAGRG[pY]VSTT-OH; N-terminus and C-terminus assumed) | – | – | – | – | – | – | – | – | – | – |
| – | – | – | – | – | – | – | – | FITC-PTD4: FITC-conjugated PTD4 protein transduction domain peptide (PTD4: Tyr-Ala-Arg-Ala-Ala-Ala-Arg-Gln-Ala-Arg-Ala; SEQ ID NO:6) (YARAAARQARA; not fully specified (N-terminus); printed as Tyr-Ala-Arg-Ala-Ala-Ala-Arg-Gln-Ala-Arg-Ala; also: FITC label, position not given here) | approximately four | 4.16 ± 0.53% | 31.2 ± 4.35% | 46.57 ± 6.63% | 69.70 ± 8.60% | 72.86 ± 8.51% | 76.71 ± 7.58% | 78.49 ± 14.11% | 4 to 6 h | 1 h |

Source: patent US7829528B2, “Compositions and methods for treating STAT-6 associated diseases or conditions” (The Rockefeller University, priority 2004, dated 2010)
